Laboratory results from patent US20250332277A1 (Eli Lilly, published 2025).

Experiments:
[1] = target: T1, human PTK-7 on cells (OV90-PTK-7, NCI-H446, OVCAR-3) (human, UniProt Q13308 31-1070); assay: flow cytometry, OVCAR3 cells; against cofetuzumab
T1 construct: OV90-PTK-7 is an ovarian tumour line engineered to overexpress human PTK-7; NCI-H446 and OVCAR-3 express it endogenously; also called PTK-7 receptor; CCK-4
T1 sequence: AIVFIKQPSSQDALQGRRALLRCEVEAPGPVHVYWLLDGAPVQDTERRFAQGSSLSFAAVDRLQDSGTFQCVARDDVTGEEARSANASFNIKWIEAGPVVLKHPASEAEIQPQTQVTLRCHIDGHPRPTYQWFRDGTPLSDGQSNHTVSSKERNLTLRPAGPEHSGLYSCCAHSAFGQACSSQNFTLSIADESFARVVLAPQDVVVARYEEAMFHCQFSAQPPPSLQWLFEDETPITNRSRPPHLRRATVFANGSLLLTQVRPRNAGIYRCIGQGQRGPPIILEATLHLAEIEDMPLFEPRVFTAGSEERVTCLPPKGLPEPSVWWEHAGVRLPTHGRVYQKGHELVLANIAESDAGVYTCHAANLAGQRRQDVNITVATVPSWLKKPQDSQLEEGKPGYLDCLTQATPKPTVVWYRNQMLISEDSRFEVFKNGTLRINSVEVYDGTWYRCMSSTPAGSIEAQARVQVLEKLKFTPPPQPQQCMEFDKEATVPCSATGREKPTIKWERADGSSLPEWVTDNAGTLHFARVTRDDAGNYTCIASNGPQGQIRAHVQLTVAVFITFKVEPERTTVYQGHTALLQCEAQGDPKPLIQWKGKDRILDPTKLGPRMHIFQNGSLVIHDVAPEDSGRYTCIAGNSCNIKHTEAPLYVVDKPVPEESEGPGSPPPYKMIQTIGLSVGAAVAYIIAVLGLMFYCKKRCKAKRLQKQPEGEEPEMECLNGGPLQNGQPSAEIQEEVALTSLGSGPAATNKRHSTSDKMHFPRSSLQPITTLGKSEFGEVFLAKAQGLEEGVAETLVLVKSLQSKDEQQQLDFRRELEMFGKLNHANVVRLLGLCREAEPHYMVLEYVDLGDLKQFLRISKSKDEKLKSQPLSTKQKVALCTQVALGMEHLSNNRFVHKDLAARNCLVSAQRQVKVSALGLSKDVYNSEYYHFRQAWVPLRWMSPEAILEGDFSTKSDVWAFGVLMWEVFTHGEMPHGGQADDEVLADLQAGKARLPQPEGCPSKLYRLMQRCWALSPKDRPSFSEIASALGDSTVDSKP
Protocol: (§1) OV90-PTK-7, overexpressing engineered ovarian tumor line representing high expression, NCI-H446 human lung cancer cells representing medium endogenous expression and OVCAR-3 human ovarian cancer cells representing low endogenous expression. […] OV90 parental cells and Namalwa-luc-GFP cells were selected as the PTK-7 negative cell lines. Antibody binding was quantified via flow cytometry and both the EC₅₀ of the binding curves and the maximum binding MFI for each antibody were recorded.
(§2) Cells were dissociated using non-enzymatic dissociation buffer for 5 min at 37° C. Cells were counted and aliquoted to a V-bottom polypropylene 96-well plate at 10⁵ cells/well. Cells were centrifuged at 1800 rpm×3 min and the supernatant discarded. An 11-point antibody dilution series was prepared in assay buffer (1×PBS containing 5% FBS) starting at 300 nM and diluting 1:4 down. The dilution series was added to cells at 100 μL/well and mixed by pipetting. Several untreated control wells/cell lines were prepared in assay buffer alone. Cells and antibodies were incubated at 4° C. on an orbital shaker for 1 hour. After incubation, the assay plates were centrifuged and washed twice with 300 μL/well of assay buffer. Cell pellets were then stained with a 1:500 dilution of Alexa647 conjugated mouse anti-human IgG secondary antibody in assay buffer, at 100 μL/well. Assay plates were incubated shaking in the dark at 4° C. for 1 hour. After incubation, plates were centrifuged, and the cells were washed twice with 300 μL/well of assay buffer. A 1:2000 dilution of Zombie Green viability marker in 1×PBS was aliquoted to the cells at 100 μL/well and plates were incubated in the dark for 10 min shaking at room temperature. Cell pellets were then washed 1× with assay buffer and fixed with 200 μL/well of 4% paraformaldehyde in 1×PBS in the dark at room temperature for 15 min. […]
(§3) Cells were acquired on an Attune Cytpix Cytometer and FCS files generated using Attune™ Cytometric Software (v. 6.0.1). FCS files were then analyzed on FlowJo (v10.8.1).

[2] = target: T1, human PTK-7 on cells (OV90-PTK-7, …); assay: flow cytometry, OV90-PTK-7 cells
Protocol: as §1
(§4) Cells were dissociated using non-enzymatic dissociation buffer for 5 min at 37° C. Cells were counted and aliquoted to a V-bottom polypropylene 96-well plate at 10⁵ cells/well. Cells were centrifuged at 1800 rpm×3 min and the supernatant discarded. An 11-point antibody dilution series was prepared in assay buffer (1×PBS containing 5% FBS) starting at 300 nM and diluting 1:4 down. The dilution series was added to cells at 100 μL/well and mixed by pipetting. Several untreated control wells/cell lines were prepared in assay buffer alone. Cells and antibodies were incubated at 4° C. on an orbital shaker for 1 hour. After incubation, the assay plates were centrifuged and washed twice with 300 μL/well of assay buffer. Cell pellets were then stained with a 1:500 dilution of Alexa647 conjugated mouse anti-human IgG secondary antibody in assay buffer, at 100 μL/well. Assay plates were incubated shaking in the dark at 4° C. for 1 hour. After incubation, plates were centrifuged, and the cells were washed twice with 300 μL/well of assay buffer. A 1:2000 dilution of Zombie Green viability marker in 1×PBS was aliquoted to the cells at 100 μL/well and plates were incubated in the dark for 10 min shaking at room temperature. Cell pellets were then washed 1× with assay buffer and fixed with 200 μL/well of 4% paraformaldehyde in 1×PBS in the dark at room temperature for 15 min. Cells were centrifuged and washed before resuspending in 100 μL of assay buffer for acquisition on Attune Cytpix Cytometer.
as §3

[3] = target: T1, human PTK-7 on cells (OV90-PTK-7, …); assay: flow cytometry, NCI-H446 cells
Protocol: as §1, §4, §3

[4] = target: T1, human PTK-7 on cells (OV90-PTK-7, …); assay: flow cytometry, OV90-PTK-7 cells; against cofetuzumab
Protocol: as §1, §2, §3

[5] = target: T1, human PTK-7 on cells (OV90-PTK-7, …); assay: flow cytometry, OVCAR3 cells
Protocol: as §1, §4, §3

[6] = target: T1, human PTK-7 on cells (OV90-PTK-7, …); assay: flow cytometry, NCI-H446 cells; against cofetuzumab
Protocol: as §1, §2, §3

[7] = target: T1, human PTK-7 on cells (OV90-PTK-7, …); assay: cell-based or functional assay
[8] = target: T2, recombinant human PTK7 (Acro Biosystems Cat. No. PT7-H52H3) (human, UniProt Q13308 31-704); assay: SPR, Biacore 8K+, ADC captured by anti-human Fc, human PTK7 as analyte, 37 C, 1:1 model
T2 construct: Bought recombinant protein; also called human PTK7 analyte
T2 sequence: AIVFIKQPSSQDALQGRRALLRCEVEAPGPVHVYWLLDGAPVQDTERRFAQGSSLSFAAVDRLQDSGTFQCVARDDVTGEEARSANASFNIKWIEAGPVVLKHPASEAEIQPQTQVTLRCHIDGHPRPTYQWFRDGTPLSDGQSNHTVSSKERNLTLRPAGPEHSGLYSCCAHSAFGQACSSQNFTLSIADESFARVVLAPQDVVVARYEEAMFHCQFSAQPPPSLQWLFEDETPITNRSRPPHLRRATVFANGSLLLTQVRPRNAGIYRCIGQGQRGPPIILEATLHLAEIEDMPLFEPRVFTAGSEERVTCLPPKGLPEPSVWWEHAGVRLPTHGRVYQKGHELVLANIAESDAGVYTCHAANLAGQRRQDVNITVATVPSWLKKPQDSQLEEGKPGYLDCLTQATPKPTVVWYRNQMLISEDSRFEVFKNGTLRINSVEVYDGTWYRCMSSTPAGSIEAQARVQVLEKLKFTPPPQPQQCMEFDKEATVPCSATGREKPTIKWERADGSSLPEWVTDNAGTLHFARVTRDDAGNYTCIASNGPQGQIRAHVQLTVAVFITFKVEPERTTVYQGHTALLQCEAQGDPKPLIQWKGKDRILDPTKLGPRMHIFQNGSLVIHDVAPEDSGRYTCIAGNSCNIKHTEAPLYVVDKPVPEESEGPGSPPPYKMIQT
Protocol: A Biacore 8K+ instrument (Cytiva, Marlborough, MA) was used to determine kinetics and affinity parameters for the binding interactions of ADCs binding to recombinant human PTK7 (Acro Biosystems Cat. No. PT7-H52H3, Newark, DE).
In each analysis cycle, a different ADC was captured on flow cell 2 of each channel by injecting a 5 μg/mL solution at 10 μL/min for 2 minutes. After capture, the same analyte was injected on flow cells 1 and 2 in all 8 channels for 2 minutes at 30 μL/min and dissociation was monitored for 10 minutes. After dissociation, all surfaces were regenerated with three consecutive 1-minute injections of 75 mM phosphoric acid at 10 μL/min. ADC capture and analyte cycles were repeated to obtain human PTK7 analyte binding of each ADC at analyte concentrations of 0, 2.47, 7.41, 22.2, 66.7, 200, and 600 nMs.
Sensorgram data were reference subtracted and blank subtracted, then globally fit with the default 1:1 binding model in Biacore Insight Evaluation Software v3.0.12.15655, as shown in Table 4.

B1: Ab2 (antibody, human IgG1, kappa, L234A L235A, V domains shown)
VH: QVQLQESGPGLVKPSETLSLTCTVSGGSISTYYWSWIRQPAGKGLEWIGRIYTSGLTNYNPSLKSRVTMSVDTSKNQFSLKLSSVTAADTAVYYCARDPHYYDGSGFDYWGQGTLVTVSS
VL: not shown
notes: Fully human antibody; also called Antibody 2
[1]
  % of Cofetuzumab (Average Max MFI): 87.7%
[2]
  Average Max MFI: 70500 MFI
  EC50: 1.83 nM
[3]
  Average Max MFI: 26200 MFI
  EC50: 0.6 nM
[4]
  % of Cofetuzumab (Average Max MFI): 103%
[5]
  Average Max MFI: 19200 MFI
[6]
  % of Cofetuzumab (Average Max MFI): 97.6%

B2: Ab4 (antibody, human IgG1, kappa, L234A L235A, V domains shown)
VH: EVQLVESGGGLVKPGGSLRLSCAASGFTFSSYSMNWVRQAPGKGLEWVSSIDSSSSFIYYADSVKGRFTISRDNAKNSLYLQMNSLRAEDTAVYYCARGTGLFDFWGQGTLVTVSS
VL: EIVLTQSPGTLSLSPGERATLSCRASQSFSSSYLAWYQQKPGQAPRLLIYGASSRATGIPDRFSGSGSGTDFTLTISRLEPEDFAVYYCQQYGRTPWTFGQGTKVEIKR
notes: Fully human antibody; also called Antibody 4; PTK-7 Antibody Ab4
[1]
  % of Cofetuzumab (Average Max MFI): 75%
[2]
  Average Max MFI: 69900 MFI
  EC50: 1.28 nM
[3]
  Average Max MFI: 26100 MFI
  EC50: 0.54 nM
[4]
  % of Cofetuzumab (Average Max MFI): 102%
[5]
  Average Max MFI: 16400 MFI
  EC50: 0.95 nM
[6]
  % of Cofetuzumab (Average Max MFI): 97.4%

B3: Ab1 (antibody, human IgG1, kappa, L234A L235A, V domains shown)
VH: EVQLVESGGGLVKPGGSLRLSCAASGFTFSSYIMNWVRQAPGKGLEWVSSISSSSTFIYYADSVKGRFTISRDNAKNSLYLQMNSLRAEDTAVYYCAKGFDYWGQGTLVTVSS
VL: DIQLTQSPSFLSASVGDRVTITCRASQDISSYLVWYQQKPGKAPKLLIYAASTLQSGVPSRFSGSGSGTEFTLTISSLQPEDFATYYCQQLNTYPRTFGQGTKVEIKR
notes: Fully human antibody; also called Antibody 1; PTK-7 Antibody Ab1
[1]
  % of Cofetuzumab (Average Max MFI): 71.6%
[2]
  Average Max MFI: 66100 MFI
  EC50: 1.25 nM
[3]
  Average Max MFI: 23200 MFI
  EC50: 0.7 nM
[4]
  % of Cofetuzumab (Average Max MFI): 96.5%
[5]
  Average Max MFI: 15700 MFI
  EC50: 2.81 nM
[6]
  % of Cofetuzumab (Average Max MFI): 86.3%

B4: Cofetuzumab (antibody, V domains shown)
VH: QVQLVQSGPEVKKPGASVKVSCKASGYTFTDYAVHWVRQAPGKRLEWIGVISTYNDYTYNNQDFKGRVTMTRDTSASTAYMELSRLRSEDTAVYYCARGNSYFYALDYWGQGTSVTVSS
VL: EIVLTQSPATLSLSPGERATLSCRASESVDSYGKSFMHWYQQKPGQAPRLLIYRASNLESGIPARFSGSGSGTDFTLTISSLEPEDFAVYYCQQSNEDPWTFGGGTKLEIK
[2]
  Average Max MFI: 68500 MFI
  EC50: 1.41 nM
[3]
  Average Max MFI: 26800 MFI
  EC50: 0.54 nM
[5]
  Average Max MFI: 21900 MFI
  EC50: 0.7 nM

B5: Ab1-PSAR10-VA-exatecan (other)
heavy: EVQLVESGGGLVKPGGSLRLSCAASGFTFSSYIMNWVRQAPGKGLEWVSSISSSSTFIYYADSVKGRFTISRDNAKNSLYLQMNSLRAEDTAVYYCAKGFDYWGQGTLVTVSSASTKGPSVFPLAPSSKSTSGGTAALGCLVKDYFPEPVTVSWNSGALTSGVHTFPAVLQSSGLYSLSSVVTVPSSSLGTQTYICNVNHKPSNTKVDKRVEPKSCDKTHTCPPCPAPEAAGGPSVFLFPPKPKDTLMISRTPEVTCVVVSVSHEDPEVKFNWYVDGVEVHNAKTKPREEQYNSTYRVVSVLTVLHQDWLNGKEYKCKVSNKALPAPIEKTISKAKGQPREPQVYTLPPSREEMTKNQVSLTCLVKGFYPSDIAVEWESNGQPENNYKTTPPVLDSDGSFFLYSKLTVDKSRWQQGNVFSCSVMHEALHNHYTQKSLSLSPGK
light: DIQLTQSPSFLSASVGDRVTITCRASQDISSYLVWYQQKPGKAPKLLIYAASTLQSGVPSRFSGSGSGTEFTLTISSLQPEDFATYYCQQLNTYPRTFGQGTKVEIKRTVAAPSVFIFPPSDEQLKSGTASVVCLLNNFYPREAKVQWKVDNALQSGNSQESVTEQDSKDSTYSLSSTLTLSKADYEKHKVYACEVTHQGLSSPVTKSFNRGEC
modifications: PSAR10-VA-exatecan linker-payload (Formula XV) on cysteine thiols after full reduction of the antibody (DAR 8 procedure); positions not stated for this ADC
notes: Antibody-drug conjugate of Ab1; also called Ab1-VA-Exatecan
[7]
  Cytotoxicity IC50, OVCAR-3 cells (CellTiter-Glo, 7 days): 4 nM
[8]
  Kd: 28.9 nM
  koff: 0.0342 s⁻¹
  kon: 1.19e+06 M⁻¹ s⁻¹
